Experimental data from patent US20250213666A1.

Target: Spike protein on SARS-CoV-2 pseudovirus expressing luciferase (COVID-19 Pseudovirus Neutralizing Antibody Assay, Abnova) (SARS-CoV-2) (UniProt P0DTC2)
Assay: cell-based or functional assay

Intimin-Ty1 nanobody (pIntimin-Ty1), surface displayed on E. coli Nissle 1917 or on its OMVs (VHH)
Pseudovirus-ACE2 receptor inhibition, OMVs at 22 µg/mL: 30 to 32%
